Laboratory results: article PMC6555819, “Comprehensive study of nuclear receptor DNA binding provides a revised framework for understanding receptor specificity”

Key:
[1] = target: RXRa (Homo sapiens, UniProt P19793); test: no ligand; PBM; 180 nM; PBS pH 7.4, 2% milk, 0.02% Triton X-100, 1 mM DTT, BSA, 0.4 mg/ml salmon testes DNA; settings: tags: His cleaved; chain copies: 2; label: surface-attached array probe
[2] = target: FXR:RXRa (Homo sapiens, UniProt Q96RI1;P19793 full;full); test: no ligand; PBM; 270 nM : 90 nM RXRa; PBS pH 7.4, 2% milk, 0.02% Triton X-100, 1 mM DTT, BSA, 0.4 mg/ml salmon testes DNA; settings: tags: His kept;His cleaved; copies: 1;1; label: surface-attached array probe
Chain of FXR:RXRa (Q96RI1 whole entry, chain 1 of 2): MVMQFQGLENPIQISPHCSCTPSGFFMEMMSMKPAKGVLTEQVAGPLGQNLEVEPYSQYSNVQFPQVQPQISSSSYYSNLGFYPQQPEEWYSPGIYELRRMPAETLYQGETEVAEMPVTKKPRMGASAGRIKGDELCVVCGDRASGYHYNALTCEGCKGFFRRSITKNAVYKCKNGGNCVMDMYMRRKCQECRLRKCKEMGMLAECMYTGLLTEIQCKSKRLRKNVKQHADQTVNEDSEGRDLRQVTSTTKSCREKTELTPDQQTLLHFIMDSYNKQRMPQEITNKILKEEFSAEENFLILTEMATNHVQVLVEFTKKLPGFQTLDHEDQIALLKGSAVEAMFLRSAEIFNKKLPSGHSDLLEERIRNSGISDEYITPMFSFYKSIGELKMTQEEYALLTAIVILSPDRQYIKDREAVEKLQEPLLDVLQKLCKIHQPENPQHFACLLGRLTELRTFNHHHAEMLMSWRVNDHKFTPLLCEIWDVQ
Chain of FXR:RXRa (P19793 whole entry, chain 2 of 2): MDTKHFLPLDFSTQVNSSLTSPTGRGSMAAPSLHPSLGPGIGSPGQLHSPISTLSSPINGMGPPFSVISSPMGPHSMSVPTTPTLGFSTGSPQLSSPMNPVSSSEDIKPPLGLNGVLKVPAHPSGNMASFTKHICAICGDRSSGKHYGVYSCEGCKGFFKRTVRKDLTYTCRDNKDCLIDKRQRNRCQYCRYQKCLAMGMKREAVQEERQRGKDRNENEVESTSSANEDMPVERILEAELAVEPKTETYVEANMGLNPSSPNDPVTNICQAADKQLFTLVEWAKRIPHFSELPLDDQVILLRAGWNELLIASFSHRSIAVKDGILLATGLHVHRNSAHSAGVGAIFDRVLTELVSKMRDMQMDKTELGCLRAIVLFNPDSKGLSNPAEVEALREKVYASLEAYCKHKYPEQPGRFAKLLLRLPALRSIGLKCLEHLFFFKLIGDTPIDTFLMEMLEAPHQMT
In short: (§1)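 Binding z-scores were set against random background probes. The data came from custom Agilent 4×180K protein-binding microarrays carrying double-stranded probes with 34-nt variable regions, incubated 1 h with ligand-free nuclear receptor dimers. Partner-specific antibodies detected binding, and scanned fluorescence was regression-normalized.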

[3] = target: RARa:RXRa (Homo sapiens, UniProt P10276;P19793 full;full); test: as above; settings: tags: His kept;His cleaved; copies: 1;1; label: surface-attached array probe
Chain of RARa:RXRa (P10276 whole entry, chain 1 of 2): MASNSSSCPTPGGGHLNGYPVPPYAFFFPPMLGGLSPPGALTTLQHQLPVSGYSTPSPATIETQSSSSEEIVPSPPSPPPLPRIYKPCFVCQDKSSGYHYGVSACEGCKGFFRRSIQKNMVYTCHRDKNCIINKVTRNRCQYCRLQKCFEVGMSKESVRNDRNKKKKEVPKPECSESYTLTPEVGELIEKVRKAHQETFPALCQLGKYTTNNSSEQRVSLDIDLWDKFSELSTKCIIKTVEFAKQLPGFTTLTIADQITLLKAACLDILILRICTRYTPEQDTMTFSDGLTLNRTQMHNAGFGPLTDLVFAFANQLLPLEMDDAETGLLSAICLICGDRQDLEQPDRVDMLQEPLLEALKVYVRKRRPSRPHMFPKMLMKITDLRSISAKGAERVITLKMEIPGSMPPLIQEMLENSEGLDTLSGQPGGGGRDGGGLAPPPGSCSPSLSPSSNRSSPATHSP
Chain of RARa:RXRa (P19793 whole entry, chain 2 of 2): as the sequence (P19793 whole entry, chain 2 of 2) above
In short: as §1

[4] = target: PPARa:RXRa (Homo sapiens, UniProt Q07869;P19793 full;full); test: as above; settings: tags: GST kept;His cleaved; copies: 1;1; label: surface-attached array probe
Chain of PPARa:RXRa (Q07869 whole entry, chain 1 of 2): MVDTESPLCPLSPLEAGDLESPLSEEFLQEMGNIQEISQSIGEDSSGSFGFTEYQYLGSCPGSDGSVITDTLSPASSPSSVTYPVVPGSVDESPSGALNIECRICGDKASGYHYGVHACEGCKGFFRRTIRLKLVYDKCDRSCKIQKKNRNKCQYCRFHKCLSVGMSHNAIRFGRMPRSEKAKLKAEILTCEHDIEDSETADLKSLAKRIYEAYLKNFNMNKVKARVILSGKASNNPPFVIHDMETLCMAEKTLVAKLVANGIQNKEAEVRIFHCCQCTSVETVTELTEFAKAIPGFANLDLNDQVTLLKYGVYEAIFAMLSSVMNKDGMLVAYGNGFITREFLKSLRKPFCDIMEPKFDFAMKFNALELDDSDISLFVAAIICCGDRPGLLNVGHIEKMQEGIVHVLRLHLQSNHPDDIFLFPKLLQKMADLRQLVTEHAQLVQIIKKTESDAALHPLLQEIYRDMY
Chain of PPARa:RXRa (P19793 whole entry, chain 2 of 2): as the sequence (P19793 whole entry, chain 2 of 2) above
In short: as §1

[5] = target: RARb:RXRa (Homo sapiens, UniProt P10826;P19793 full;full); test: as above; settings: tags: His kept;His cleaved; copies: 1;1; label: surface-attached array probe
Chain of RARb:RXRa (P10826 whole entry, chain 1 of 2): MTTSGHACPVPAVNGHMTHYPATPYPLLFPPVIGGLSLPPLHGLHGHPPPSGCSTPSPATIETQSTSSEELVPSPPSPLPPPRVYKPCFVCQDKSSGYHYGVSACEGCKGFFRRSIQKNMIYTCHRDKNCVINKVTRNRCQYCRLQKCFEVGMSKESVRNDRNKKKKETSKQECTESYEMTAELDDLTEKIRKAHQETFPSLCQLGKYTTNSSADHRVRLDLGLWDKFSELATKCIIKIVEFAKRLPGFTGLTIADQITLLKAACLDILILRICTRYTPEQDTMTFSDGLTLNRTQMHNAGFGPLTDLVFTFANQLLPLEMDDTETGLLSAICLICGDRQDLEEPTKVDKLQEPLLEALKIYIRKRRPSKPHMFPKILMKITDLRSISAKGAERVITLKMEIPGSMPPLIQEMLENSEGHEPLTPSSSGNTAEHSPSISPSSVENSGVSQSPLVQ
Chain of RARb:RXRa (P19793 whole entry, chain 2 of 2): as the sequence (P19793 whole entry, chain 2 of 2) above
In short: as §1

[6] = target: RARg:RXRa (Homo sapiens, UniProt P13631;P19793 full;full); test: as above; settings: tags: His kept;His cleaved; copies: 1;1; label: surface-attached array probe
Chain of RARg:RXRa (P13631 whole entry, chain 1 of 2): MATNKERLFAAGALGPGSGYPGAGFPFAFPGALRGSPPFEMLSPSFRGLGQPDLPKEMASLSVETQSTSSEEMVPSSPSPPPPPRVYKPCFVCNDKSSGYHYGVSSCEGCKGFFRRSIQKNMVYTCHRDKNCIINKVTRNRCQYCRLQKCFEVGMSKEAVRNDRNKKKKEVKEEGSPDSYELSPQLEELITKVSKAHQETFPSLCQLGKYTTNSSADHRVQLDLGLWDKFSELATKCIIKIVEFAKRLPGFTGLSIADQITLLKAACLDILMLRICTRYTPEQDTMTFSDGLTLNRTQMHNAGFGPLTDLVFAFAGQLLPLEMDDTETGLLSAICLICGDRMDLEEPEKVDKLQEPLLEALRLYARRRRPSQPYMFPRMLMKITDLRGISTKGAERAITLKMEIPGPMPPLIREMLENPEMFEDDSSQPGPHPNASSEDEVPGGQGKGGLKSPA
Chain of RARg:RXRa (P19793 whole entry, chain 2 of 2): as the sequence (P19793 whole entry, chain 2 of 2) above
In short: as §1

[7] = target: VDR:RXRa (Homo sapiens, UniProt P11473;P19793 full;full); test: as above; settings: tags: His kept;His cleaved; copies: 1;1; label: surface-attached array probe
Chain of VDR:RXRa (P11473 whole entry, chain 1 of 2): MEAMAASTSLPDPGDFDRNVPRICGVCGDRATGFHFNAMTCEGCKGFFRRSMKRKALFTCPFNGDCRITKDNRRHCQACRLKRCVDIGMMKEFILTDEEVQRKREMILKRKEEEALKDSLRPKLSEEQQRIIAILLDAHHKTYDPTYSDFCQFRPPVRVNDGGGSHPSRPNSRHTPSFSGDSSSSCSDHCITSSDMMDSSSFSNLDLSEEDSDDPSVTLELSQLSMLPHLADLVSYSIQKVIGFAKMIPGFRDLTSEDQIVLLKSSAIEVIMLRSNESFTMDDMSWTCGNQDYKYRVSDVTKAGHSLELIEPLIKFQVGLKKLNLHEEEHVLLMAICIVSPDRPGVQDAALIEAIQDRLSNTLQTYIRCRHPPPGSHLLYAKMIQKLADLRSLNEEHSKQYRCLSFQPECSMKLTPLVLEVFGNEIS
Chain of VDR:RXRa (P19793 whole entry, chain 2 of 2): as the sequence (P19793 whole entry, chain 2 of 2) above
In short: as §1

Chain of RXRa (P19793 whole entry): as the sequence (P19793 whole entry, chain 2 of 2) above

Binder | binding signal [1] | binding signal [2] | binding signal [3] | binding signal [4] | binding signal [5] | binding signal [6] | binding signal [7]
NRC3_random_hg19_84_o1 (dsDNA) DNA 1: GCGTAAGACACCTTCCTAGGAAGAGAACAGCAGAATGCGATTGACAGCGTAGAATGAAGG DNA 2: CCTTCATTCTACGCTGTCAATCGCATTCTGCTGTTCTCTTCCTAGGAAGGTGTCTTACGC | -0.13 PBM z-score against 500 random probes | -0.49 PBM z-score against 500 random probes | -0.2 PBM z-score against 500 random probes |  |  |  | 
NRC3_random_hg19_476_o1 (dsDNA) DNA 1: GCACAGCAAAGAGGCCAGCATGGCTAGAGCAGATCAGCGATTGACAGCGTAGAATGAAGG DNA 2: CCTTCATTCTACGCTGTCAATCGCTGATCTGCTCTAGCCATGCTGGCCTCTTTGCTGTGC | -0.29 PBM z-score against 500 random probes |  | -0.83 PBM z-score against 500 random probes |  |  |  | 
NRC3_wobSeed42_DR1_G22A_o1 (dsDNA) DNA 1: GCTATACAGGGTCAAAGGCCAAAGTACGAATGTCGAGCGATTGACAGCGTAGAATGAAGG DNA 2: CCTTCATTCTACGCTGTCAATCGCTCGACATTCGTACTTTGGCCTTTGACCCTGTATAGC | 8.11 PBM z-score against 500 random probes | 7.75 PBM z-score against 500 random probes | 7.1 PBM z-score against 500 random probes | 6.61 PBM z-score against 500 random probes |  |  | 
NRC3_wobSeed140_DR5_A9G_o1 (dsDNA) DNA 1: GCAGAATGGGGTTATACGTAGATCAGGGAAGAAAGTGCGATTGACAGCGTAGAATGAAGG DNA 2: CCTTCATTCTACGCTGTCAATCGCACTTTCTTCCCTGATCTACGTATAACCCCATTCTGC |  | 4.21 PBM z-score against 500 random probes | 3.3 PBM z-score against 500 random probes |  |  |  | 
NRC3_wobSeed130_DR5_C13G_o1 (dsDNA) DNA 1: GCCTCGAAAGGTGGTGCTCAGGTGAGTATACCAAACGCGATTGACAGCGTAGAATGAAGG DNA 2: CCTTCATTCTACGCTGTCAATCGCGTTTGGTATACTCACCTGAGCACCACCTTTCGAGGC | -0.07 PBM z-score against 500 random probes |  | 0.34 PBM z-score against 500 random probes | 0.16 PBM z-score against 500 random probes |  |  | 
NRC3_random_hg19_403_o1 (dsDNA) DNA 1: GCATCTCCTGCCTCAGCCTCCTGAATAGGTGGGACTGCGATTGACAGCGTAGAATGAAGG DNA 2: CCTTCATTCTACGCTGTCAATCGCAGTCCCACCTATTCAGGAGGCTGAGGCAGGAGATGC |  |  | -0.6 PBM z-score against 500 random probes |  | -1.01 PBM z-score against 500 random probes |  | 
NRC3_wobSeed61_DR2_C7A_o1 (dsDNA) DNA 1: GCCGTCAAAGGTCAGCAGGTCAGTGAAAGCGACGTGGCGATTGACAGCGTAGAATGAAGG DNA 2: CCTTCATTCTACGCTGTCAATCGCCACGTCGCTTTCACTGACCTGCTGACCTTTGACGGC | 7.98 PBM z-score against 500 random probes | 8.26 PBM z-score against 500 random probes | 7.38 PBM z-score against 500 random probes | 6.49 PBM z-score against 500 random probes | 6.16 PBM z-score against 500 random probes | 8.13 PBM z-score against 500 random probes | 
NRC3_random_hg19_398_o1 (dsDNA) DNA 1: GCAAGAAACAACAAACTTAGTACCTAGAAACAAGAGGCGATTGACAGCGTAGAATGAAGG DNA 2: CCTTCATTCTACGCTGTCAATCGCCTCTTGTTTCTAGGTACTAAGTTTGTTGTTTCTTGC |  |  | 0.12 PBM z-score against 500 random probes |  | -0.22 PBM z-score against 500 random probes |  | 
NRC3_wobSeed34_DR1_G20C_o1 (dsDNA) DNA 1: GCATCGAAAGGTCGAAGGTCAGTATACCCACCCGAAGCGATTGACAGCGTAGAATGAAGG DNA 2: CCTTCATTCTACGCTGTCAATCGCTTCGGGTGGGTATACTGACCTTCGACCTTTCGATGC | 7.85 PBM z-score against 500 random probes |  | 7.04 PBM z-score against 500 random probes |  |  |  | 
NRC3_random_hg19_254_o1 (dsDNA) DNA 1: GCGCCTCTGGAATGTAAACTCCAGCCTGGCATGTATGCGATTGACAGCGTAGAATGAAGG DNA 2: CCTTCATTCTACGCTGTCAATCGCATACATGCCAGGCTGGAGTTTACATTCCAGAGGCGC |  |  | -0.5 PBM z-score against 500 random probes |  | -0.34 PBM z-score against 500 random probes |  | 
NRC3_random_hg19_457_o1 (dsDNA) DNA 1: GCAGCTGCATCCATGTTGCTGCAAAGGACATGACTTGCGATTGACAGCGTAGAATGAAGG DNA 2: CCTTCATTCTACGCTGTCAATCGCAAGTCATGTCCTTTGCAGCAACATGGATGCAGCTGC | -0.65 PBM z-score against 500 random probes | -1.02 PBM z-score against 500 random probes | -0.52 PBM z-score against 500 random probes |  |  | -0.13 PBM z-score against 500 random probes | -0.67 PBM z-score against 500 random probes
NRC3_random_hg19_429_o1 (dsDNA) DNA 1: GCTTAGTGAAGTGAAGGTTGCTTTCTACTCATTTGAGCGATTGACAGCGTAGAATGAAGG DNA 2: CCTTCATTCTACGCTGTCAATCGCTCAAATGAGTAGAAAGCAACCTTCACTTCACTAAGC | -0.28 PBM z-score against 500 random probes |  | 0.08 PBM z-score against 500 random probes |  |  |  | 
